Experiment [1] relates to target tumour cells and endothelial cells. The conditions noted are these: acts on microtubuli; literature references; cited from earlier work.
Experiment [2] deals with blood vessels in the bone marrow of AML patients. Nature of the experiment: Immunohistochemistry of bone marrow biopsies from AML patients. The format is binding, human. The conditions noted are these: biotinylated antibody in SIP format, 2 μg/ml, frozen 10 μm sections; FIG. 2. As to the method: (§1) Immunohistochemistry and immunofluorescence analysis were performed on freshly frozen bone marrow biopsies of patients with acute myeloid leukaemia.
(§2) For immunohistochemistry, biotinylated antibodies were used in small immunoprotein format (SIP) under identical conditions (2 μg/ml). Aliquots were prepared from a single batch of antibodies, frozen and used only once to ensure reproducibility of immunohistochemical stainings. Frozen tissue samples were stored at −80° C. Sections of 10 μm thickness were fixed in chilled acetone, rehydrated in TBS buffer (50 mM Tris, 100 mM NaCl, 0.001% Aprotinin, pH 7.4) and blocked with 20% fetal calf serum in TBS. The antibodies were added onto the sections in a final concentration of 2 μg/mL in 3% bovine serum albumin (BSA)/TBS solution and incubated for one hour. After washing in TBS, bound antibodies were detected with streptavidin-biotinylated alkaline phosphatase complex (Biospa, Milan, Italy) in TBS 3% BSA+2 mM MgCl2. The Fast Red substrate (Sigma) was used for detection of phosphatase activity. Sections were counterstained with Gill's hematoxylin No. 2 (Sigma) and mounted with Glycergel mounting medium (Dako, Glostrup, Denmark).

Experiment [3] concerns blood vessels present in the bone marrow biopsies of patients with extramedullary AML. Nature of the experiment: Immunohistochemistry of bone marrow biopsies from patients with extramedullary AML. The format is binding, human. The conditions noted are these: biotinylated antibody in SIP format, 2 μg/ml; two patients; FIG. 3. As to the method: as §1, §2
Experiment [4] deals with vessels of HL-60 tumour (granulocytic sarcoma) sections. Nature of the experiment: Immunohistochemistry of HL-60 tumours from human leukaemia mouse model. The experiment is classed as binding. The settings on record: biotinylated SIP, 2 μg/ml, HL-60 xenograft in nude mice, FIG. 4A. As to the method: as §2
The mouse model for human leukaemia used here was previously described in Potter et al. (1984). Specifically, nude mice were xenografted with cells from the HL-60 leukaemia cell line and, after development of HL-60 tumours (granulocytic sarcomas), samples were obtained both from said tumours and from the bone marrow of the mice.
Immunohistochemistry studies were then performed as described under “immunohistochemistry” above.

Another experiment has as its system healthy bone marrow. Nature of the experiment: Immunohistochemistry of healthy bone marrow from HL-60 xenografted mice. The format is binding, nude mice. The settings on record: biotinylated SIP, 2 μg/ml; bone marrow of the same HL-60 xenografted mice; FIG. 4B. As to the method:
as §2
The mouse model for human leukaemia used here was previously described in Potter et al. (1984). Specifically, nude mice were xenografted with cells from the HL-60 leukaemia cell line and, after development of HL-60 tumours (granulocytic sarcomas), samples were obtained both from said tumours and from the bone marrow of the mice. […]

Experiment [5] concerns areas of bone marrow from AML patients with high blast densities. Nature of the experiment: Multicolour immunofluorescence of AML bone marrow (co-localization with vWF). The experiment is classed as binding, human. The settings on record: biotinylated SIP, 2 μg/mL. As to the method:
Biotinylated antibodies were used in small immunoprotein format (SIP) under identical conditions (2 μg/ml). Aliquots were prepared from a single batch of antibodies, frozen and used only once to ensure reproducibility of immunohistochemical stainings.
Sections of 10 μm thickness were fixed in chilled acetone and blocked with 20% fetal calf serum in PBS. Biotinylated F8-SIP (V5L/K18R) and 4A1-F16-SIP were added onto the sections in a final concentration of 2 μg/mL in 3% bovine serum albumin (BSA)/PBS solution and incubated for one hour. Mouse anti-human vWF (von Willebrandt factor) was used to outline endothelial cells. After washing in PBS, bound primary antibodies were detected with Streptavidin-Alexa Fluor 488 and anti-mouse IgG Alexa Fluor 594 (Invitrogen) were used as secondary antibodies. Nuclei were counterstained with DAPI and images were captured on an Axioskop 2 Mot plus microscope equipped with an AxioCam MRc camera (Zeiss). Human

“Also recorded” adds a separate entry of the source.

Turning to `CC[C@]1(O)C[C@H]2CN(CCc3c([nH]c4ccccc34)[C@@](C(=O)OC)(c3cc4c(cc3OC)N(C)[C@H]3[C@@](O)(C(=O)NN)[C@H](O)[C@]5(CC)C=CCN6CC[C@]43[C@@H]65)C2)C1` [4-desacetyl-3-vinblastine monohydrazide], in experiment [1], the “concentration range capable of killing target tumour cells and endothelial cells” value is on record as “picomolar concentration range”.

In the case of cemadotin, in experiment [1], the “concentration range capable of killing target tumour cells and endothelial cells” value is listed as “picomolar concentration range”.

B1: F8-SIP (V5L/K18R): human monoclonal mini-immunoglobulin specific to the alternatively spliced EDA domain of fibronectin; sequence SEQ ID NO:26 (protein)
chain: EVQLLESGGGLVQPGGSLRLSCAASGFTFSLFTMSWVRQAPGKGLEWVSAISGSGGSTYYADSVKGRFTISRDNSKNTLYLQMNSLRAEDTAVYYCAKSTHLYLFDYWGQGTLVTVSSGGGGSGGGSGGGGGEIVLTQSPGTLSLSPGERATLSCRASQSVSMPFLAWYQQKPGQAPRLLIYGASSRATGIPDRFSGSGSGTDFTLTISRLEPEDFAVYYCQQMRGRPPTFGQGTKVEIKSGGSGGPRAAPEVYAFATPEWPGSRDKRTLACLIQNFMPEDISVQWLHNEVQLPDARHSTTQPRKTKGSGFFVFSRLEVTRAEWEQKDEFICRAVHEAASPSQTVQRAVSVNPESSRRGGC
modifications: Synthetic sequence F8-SIP (V5L/K18R) amino acid sequence
For the molecule B1, in experiment [2], the “staining of blood vessels in bone marrow biopsies of AML patients” value is reported as “also visible, although the level of staining was weaker than that observed with 4A1-F16-SIP; also recorded: stained a large proportion of these blood vessels but fewer than observed with the 4A1-F16-SIP antibody”. Also, the “staining of blood vessels in bone marrow biopsies of extramedullary AML patients” value in experiment [3] was “also visible and was either similar or slightly weaker than the level of staining observed with 4A1-F16-SIP”. The “staining of vessels in HL-60 tumour sections” value in experiment [4] is on record as “strongly stained the vessels of the HL-60 tumour sections; also recorded: strongly stained the vessels present in the HL-60 tumour (granulocytic sarcoma) sections”. Also, in the experiment with healthy bone marrow, the “staining of healthy bone marrow sections” value is given as “no staining was visible”.

B2: 4A1-F16-SIP: human monoclonal mini-immunoglobulin specific to the A1 domain of tenascin-C; sequence SEQ ID NO:25 (protein)
chain: EVQLLESGGGLVQPGGSLRLSCAASGFTFSRYGMSWVRQAPGKGLEWVSAISGSGGSTYYADSVKGRFTISRDNSKNTLYLQMNSLRAEDTAVYYCAKAHNAFDYWGQGTLVTVSRGGGSGGGSGGSSELTQDPAVSVALGQTVRITCQGDSLRSYYASWYQQKPGQAPVLVIYGKNNRPSGIPDRFSGSSSGNTASLTITGAQAEDEADYYCNSSVYTMPPVVFGGGTKLTVLSGGSGGPRAAPEVYAFATPEWPGSRDKRTLACLIQNFMPEDISVQWLHNEVQLPDARHSTTQPRKTKGSGFFVFSRLEVTRAEWEQKDEFICRAVHEAASPSQTVQRAVSVNPESSRRGGC
modifications: Synthetic sequence 4A1-F16-SIP amino acid sequence
Consider B2, for which the “staining of blood vessels in bone marrow biopsies of AML patients” value in experiment [2] is “strongly stained the blood vessels present in the bone marrow biopsy; also recorded: capable of staining the vast majority of blood vessels”. Besides, the “staining of blood vessels in bone marrow biopsies of extramedullary AML patients” value in experiment [3] was “strongly stained the blood vessels present in the bone marrow biopsies in both cases”. For the same molecule, the entries for the “staining of vessels in HL-60 tumour sections” value in experiment [4] and in experiment [4] (listed as 4A1-F16 SIP) were “strongly stained the vessels of the HL-60 tumour sections” and “strongly stained the vessels present in the HL-60 tumour (granulocytic sarcoma) sections”, respectively. In addition, the “co-localization with antibodies specific for von Willebrand Factor (vWF)” value in experiment [5] is on record as “excellent co-localization”. In addition, the “staining of healthy bone marrow sections” value in the experiment with healthy bone marrow is on record as “no staining was visible”.

(Values after patent publication US9446124B2, “Targeting of bone marrow neovasculature” (Philogen S.P.A., priority 2009, dated 2016).)
